Assay results: the supplement of paper PMC9876800

Each substance was assayed on peptide library, one residue held at a place counted from the S/T acceptor (assay: relative phosphorylation of the sub-library (ratio to the mean residue at this position); human; higher = residue favoured). Details: H fixed; at -5.
Method in brief: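 Human or orthologue kinase constructs, purified and recombinant, were incubated under kinase-specific conditions in 384-well plates with biotinylated degenerate peptide sub-libraries. Each sub-library fixed one residue at one position around a central Ser/Thr. Incubations lasted 90 min with peptides at 50 μM and 50 μM ATP spiked with γ-32P-ATP, after which spots on streptavidin membranes were phosphorimaged and quantified by densitometry. Relative sub-library phosphorylation is a ratio to the mean residue at that position.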

GRK7, construct: Full length, sequence (Q8WTQ7 whole entry, looked up): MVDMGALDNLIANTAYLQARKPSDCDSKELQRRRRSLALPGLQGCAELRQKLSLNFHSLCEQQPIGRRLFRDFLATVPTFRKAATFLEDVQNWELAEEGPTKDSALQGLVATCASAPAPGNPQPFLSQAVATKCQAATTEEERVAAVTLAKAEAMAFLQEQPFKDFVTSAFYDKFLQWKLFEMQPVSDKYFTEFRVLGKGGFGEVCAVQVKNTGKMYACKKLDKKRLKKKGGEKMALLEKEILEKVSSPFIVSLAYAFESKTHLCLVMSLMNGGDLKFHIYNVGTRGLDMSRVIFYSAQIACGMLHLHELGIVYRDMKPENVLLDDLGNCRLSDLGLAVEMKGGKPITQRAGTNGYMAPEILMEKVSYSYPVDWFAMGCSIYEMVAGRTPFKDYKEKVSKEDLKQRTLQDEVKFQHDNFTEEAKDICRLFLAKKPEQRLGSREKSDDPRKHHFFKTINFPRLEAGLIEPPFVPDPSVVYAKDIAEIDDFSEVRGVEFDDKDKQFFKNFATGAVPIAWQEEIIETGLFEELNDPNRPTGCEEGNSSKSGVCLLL
AURKB, construct: Full length, sequence (Q96GD4 whole entry, looked up): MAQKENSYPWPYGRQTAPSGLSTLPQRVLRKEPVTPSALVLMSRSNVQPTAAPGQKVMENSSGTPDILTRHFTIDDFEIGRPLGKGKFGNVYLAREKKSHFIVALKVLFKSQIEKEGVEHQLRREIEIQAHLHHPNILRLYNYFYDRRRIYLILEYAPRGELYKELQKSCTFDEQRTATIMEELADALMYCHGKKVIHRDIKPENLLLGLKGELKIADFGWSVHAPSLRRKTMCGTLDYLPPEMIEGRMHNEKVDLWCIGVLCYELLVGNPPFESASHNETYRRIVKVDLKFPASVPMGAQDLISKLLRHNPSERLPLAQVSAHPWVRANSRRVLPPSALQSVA
GRK2, construct: Full length, sequence (P25098 whole entry, looked up): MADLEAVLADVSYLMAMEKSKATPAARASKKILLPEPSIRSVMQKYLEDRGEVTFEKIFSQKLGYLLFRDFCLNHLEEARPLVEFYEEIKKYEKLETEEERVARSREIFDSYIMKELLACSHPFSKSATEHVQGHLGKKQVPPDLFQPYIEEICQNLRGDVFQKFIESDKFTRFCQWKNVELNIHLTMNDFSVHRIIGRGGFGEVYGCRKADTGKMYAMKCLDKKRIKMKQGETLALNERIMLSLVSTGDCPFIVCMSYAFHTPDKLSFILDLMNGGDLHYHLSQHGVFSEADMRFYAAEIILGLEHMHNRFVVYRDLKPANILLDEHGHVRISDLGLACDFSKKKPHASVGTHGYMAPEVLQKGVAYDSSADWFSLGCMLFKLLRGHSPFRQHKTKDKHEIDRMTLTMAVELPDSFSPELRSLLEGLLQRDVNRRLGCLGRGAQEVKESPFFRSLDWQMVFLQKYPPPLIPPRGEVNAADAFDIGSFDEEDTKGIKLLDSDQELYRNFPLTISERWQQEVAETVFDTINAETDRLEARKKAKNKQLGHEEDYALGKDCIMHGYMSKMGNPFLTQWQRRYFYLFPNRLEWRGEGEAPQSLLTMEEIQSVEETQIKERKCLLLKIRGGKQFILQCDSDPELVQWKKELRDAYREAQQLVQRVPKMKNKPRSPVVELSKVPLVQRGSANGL
NEK4, construct: Full length, sequence (P51957 whole entry, looked up): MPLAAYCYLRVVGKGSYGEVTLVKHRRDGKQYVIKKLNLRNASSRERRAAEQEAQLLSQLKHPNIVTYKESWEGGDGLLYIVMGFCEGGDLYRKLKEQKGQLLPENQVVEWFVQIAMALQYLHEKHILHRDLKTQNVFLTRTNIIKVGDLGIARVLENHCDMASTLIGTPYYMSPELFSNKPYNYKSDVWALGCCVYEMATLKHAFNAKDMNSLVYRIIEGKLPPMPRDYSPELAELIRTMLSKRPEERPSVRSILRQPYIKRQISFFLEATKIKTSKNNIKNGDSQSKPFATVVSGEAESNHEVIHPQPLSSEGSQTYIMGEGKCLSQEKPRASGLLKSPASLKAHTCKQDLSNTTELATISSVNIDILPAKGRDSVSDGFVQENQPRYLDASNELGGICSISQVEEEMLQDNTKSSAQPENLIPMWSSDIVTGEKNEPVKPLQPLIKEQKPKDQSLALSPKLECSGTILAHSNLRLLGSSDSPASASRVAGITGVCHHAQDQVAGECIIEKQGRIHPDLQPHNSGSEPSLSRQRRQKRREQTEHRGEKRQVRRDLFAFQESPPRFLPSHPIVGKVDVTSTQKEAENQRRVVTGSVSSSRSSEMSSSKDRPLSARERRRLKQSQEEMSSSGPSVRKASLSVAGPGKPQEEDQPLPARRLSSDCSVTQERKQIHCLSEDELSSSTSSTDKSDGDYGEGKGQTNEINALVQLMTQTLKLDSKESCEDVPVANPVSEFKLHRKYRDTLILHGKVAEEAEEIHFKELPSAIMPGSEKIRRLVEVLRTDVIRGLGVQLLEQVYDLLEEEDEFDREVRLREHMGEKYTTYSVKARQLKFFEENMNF
NEK11, construct: Full length, sequence (Q8NG66 whole entry, looked up): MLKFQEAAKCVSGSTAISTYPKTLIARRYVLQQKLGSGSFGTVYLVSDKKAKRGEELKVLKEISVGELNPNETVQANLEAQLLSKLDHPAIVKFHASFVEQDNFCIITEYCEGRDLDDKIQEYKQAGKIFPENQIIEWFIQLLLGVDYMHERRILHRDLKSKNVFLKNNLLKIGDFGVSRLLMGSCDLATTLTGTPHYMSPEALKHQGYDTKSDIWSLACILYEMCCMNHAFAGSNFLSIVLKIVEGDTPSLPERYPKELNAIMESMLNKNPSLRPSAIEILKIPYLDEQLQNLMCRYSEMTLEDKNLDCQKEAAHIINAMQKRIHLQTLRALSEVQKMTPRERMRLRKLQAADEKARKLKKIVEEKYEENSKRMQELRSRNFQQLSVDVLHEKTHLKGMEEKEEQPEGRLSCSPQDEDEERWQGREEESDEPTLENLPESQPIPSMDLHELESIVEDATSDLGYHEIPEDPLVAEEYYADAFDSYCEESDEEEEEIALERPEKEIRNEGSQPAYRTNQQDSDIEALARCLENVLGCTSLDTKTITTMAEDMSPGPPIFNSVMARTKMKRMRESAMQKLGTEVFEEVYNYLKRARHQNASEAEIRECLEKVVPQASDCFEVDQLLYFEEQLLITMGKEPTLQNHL
SGK3, construct: aa119-end, sequence (Q96BR1 119-496, looked up): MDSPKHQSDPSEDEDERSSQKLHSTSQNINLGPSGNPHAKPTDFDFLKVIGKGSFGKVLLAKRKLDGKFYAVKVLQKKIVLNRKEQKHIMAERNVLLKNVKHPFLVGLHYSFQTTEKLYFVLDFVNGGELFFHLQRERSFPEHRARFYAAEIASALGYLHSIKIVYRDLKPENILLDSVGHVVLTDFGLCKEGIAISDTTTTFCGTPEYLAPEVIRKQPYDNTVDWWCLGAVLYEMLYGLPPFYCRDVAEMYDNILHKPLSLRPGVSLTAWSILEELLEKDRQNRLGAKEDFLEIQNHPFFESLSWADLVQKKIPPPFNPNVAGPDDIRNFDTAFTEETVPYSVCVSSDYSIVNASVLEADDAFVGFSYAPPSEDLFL
TP53RK, construct: Full length, sequence (Q96S44 whole entry, looked up): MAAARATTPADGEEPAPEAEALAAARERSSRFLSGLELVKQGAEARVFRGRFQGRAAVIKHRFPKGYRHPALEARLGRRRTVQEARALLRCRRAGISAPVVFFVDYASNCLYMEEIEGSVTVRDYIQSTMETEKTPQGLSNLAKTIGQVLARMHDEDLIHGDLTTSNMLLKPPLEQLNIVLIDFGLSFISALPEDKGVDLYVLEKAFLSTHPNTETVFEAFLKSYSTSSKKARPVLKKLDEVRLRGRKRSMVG

Row | Substance | relative phosphorylation
1 | GRK2, construct: Full length (from UniProt P25098) | 0.931
2 | NEK4, construct: Full length (from UniProt P51957) | 1.03
3 | AURKB, construct: Full length (from UniProt Q96GD4) | 1.06
4 | SGK3, construct: aa119-end (from UniProt Q96BR1) | 1.05
5 | GRK7, construct: Full length (from UniProt Q8WTQ7) | 0.883

Same assay, conditions: I fixed; at +1

Row | Substance | relative phosphorylation
6 | NEK11, construct: Full length (from UniProt Q8NG66) | 2
7 | MKNK1, construct: Full length (D165-205) (from UniProt Q9BUB5) | 1.05
8 | TP53RK, construct: Full length (from UniProt Q96S44) | 0.913
9 | GRK2, construct: Full length (from UniProt P25098) | 1.03
10 | NEK4, construct: Full length (from UniProt P51957) | 1.63
11 | AURKB, construct: Full length (from UniProt Q96GD4) | 1.21
12 | SGK3, construct: aa119-end (from UniProt Q96BR1) | 1.71
13 | GRK7, construct: Full length (from UniProt Q8WTQ7) | 0.765

Same assay, conditions: I fixed; at +2

Row | Substance | relative phosphorylation
14 | NEK11, construct: Full length (from UniProt Q8NG66) | 0.549
15 | MKNK1, construct: Full length (D165-205) (from UniProt Q9BUB5) | 0.875
16 | TP53RK, construct: Full length (from UniProt Q96S44) | 0.816
17 | GRK2, construct: Full length (from UniProt P25098) | 1.18
18 | NEK4, construct: Full length (from UniProt P51957) | 0.625
19 | AURKB, construct: Full length (from UniProt Q96GD4) | 0.911
20 | SGK3, construct: aa119-end (from UniProt Q96BR1) | 1.18
21 | GRK7, construct: Full length (from UniProt Q8WTQ7) | 1.11

Same assay, conditions: I fixed; at +3

Row | Substance | relative phosphorylation
22 | NEK11, construct: Full length (from UniProt Q8NG66) | 0.797
23 | MKNK1, construct: Full length (D165-205) (from UniProt Q9BUB5) | 0.597
24 | TP53RK, construct: Full length (from UniProt Q96S44) | 0.945
25 | GRK2, construct: Full length (from UniProt P25098) | 0.892
26 | NEK4, construct: Full length (from UniProt P51957) | 0.899
27 | AURKB, construct: Full length (from UniProt Q96GD4) | 0.957
28 | SGK3, construct: aa119-end (from UniProt Q96BR1) | 0.918
29 | GRK7, construct: Full length (from UniProt Q8WTQ7) | 0.372

Same assay, conditions: I fixed; at +4

Row | Substance | relative phosphorylation
30 | NEK11, construct: Full length (from UniProt Q8NG66) | 0.497
31 | MKNK1, construct: Full length (D165-205) (from UniProt Q9BUB5) | 0.687
32 | TP53RK, construct: Full length (from UniProt Q96S44) | 0.896
33 | GRK2, construct: Full length (from UniProt P25098) | 0.892
34 | NEK4, construct: Full length (from UniProt P51957) | 0.69
35 | AURKB, construct: Full length (from UniProt Q96GD4) | 0.869
36 | SGK3, construct: aa119-end (from UniProt Q96BR1) | 0.896
37 | GRK7, construct: Full length (from UniProt Q8WTQ7) | 0.799

Same assay, conditions: I fixed; at -1

Row | Substance | relative phosphorylation
38 | NEK11, construct: Full length (from UniProt Q8NG66) | 0.491
39 | MKNK1, construct: Full length (D165-205) (from UniProt Q9BUB5) | 0.304
40 | TP53RK, construct: Full length (from UniProt Q96S44) | 0.976
41 | GRK2, construct: Full length (from UniProt P25098) | 0.862
42 | NEK4, construct: Full length (from UniProt P51957) | 0.583
43 | AURKB, construct: Full length (from UniProt Q96GD4) | 0.735
44 | SGK3, construct: aa119-end (from UniProt Q96BR1) | 0.455
45 | GRK7, construct: Full length (from UniProt Q8WTQ7) | 0.495

Same assay, conditions: I fixed; at -2

Row | Substance | relative phosphorylation
46 | NEK11, construct: Full length (from UniProt Q8NG66) | 0.542
47 | MKNK1, construct: Full length (D165-205) (from UniProt Q9BUB5) | 0.372
48 | TP53RK, construct: Full length (from UniProt Q96S44) | 1.01
49 | GRK2, construct: Full length (from UniProt P25098) | 0.724
50 | NEK4, construct: Full length (from UniProt P51957) | 0.8
51 | AURKB, construct: Full length (from UniProt Q96GD4) | 0.217
52 | SGK3, construct: aa119-end (from UniProt Q96BR1) | 0.33
53 | GRK7, construct: Full length (from UniProt Q8WTQ7) | 0.533

Same assay, conditions: I fixed; at -3

Row | Substance | relative phosphorylation
54 | NEK11, construct: Full length (from UniProt Q8NG66) | 0.671
55 | MKNK1, construct: Full length (D165-205) (from UniProt Q9BUB5) | 0.286
56 | TP53RK, construct: Full length (from UniProt Q96S44) | 0.878
57 | GRK2, construct: Full length (from UniProt P25098) | 0.732
58 | NEK4, construct: Full length (from UniProt P51957) | 0.658
59 | AURKB, construct: Full length (from UniProt Q96GD4) | 0.553
60 | SGK3, construct: aa119-end (from UniProt Q96BR1) | 0.305
61 | GRK7, construct: Full length (from UniProt Q8WTQ7) | 0.499

Same assay, conditions: I fixed; at -4

Row | Substance | relative phosphorylation
62 | NEK11, construct: Full length (from UniProt Q8NG66) | 0.724
63 | MKNK1, construct: Full length (D165-205) (from UniProt Q9BUB5) | 0.625
64 | TP53RK, construct: Full length (from UniProt Q96S44) | 0.829
65 | GRK2, construct: Full length (from UniProt P25098) | 0.847
66 | NEK4, construct: Full length (from UniProt P51957) | 0.754
67 | AURKB, construct: Full length (from UniProt Q96GD4) | 0.709
68 | SGK3, construct: aa119-end (from UniProt Q96BR1) | 0.778
69 | GRK7, construct: Full length (from UniProt Q8WTQ7) | 0.553

Same assay, conditions: I fixed; at -5

Row | Substance | relative phosphorylation
70 | NEK11, construct: Full length (from UniProt Q8NG66) | 0.866
71 | MKNK1, construct: Full length (D165-205) (from UniProt Q9BUB5) | 1
72 | TP53RK, construct: Full length (from UniProt Q96S44) | 0.893
73 | GRK2, construct: Full length (from UniProt P25098) | 0.898
74 | NEK4, construct: Full length (from UniProt P51957) | 0.822
75 | AURKB, construct: Full length (from UniProt Q96GD4) | 0.855
76 | SGK3, construct: aa119-end (from UniProt Q96BR1) | 0.641
77 | GRK7, construct: Full length (from UniProt Q8WTQ7) | 0.729

Same assay, conditions: K fixed; at +1

Row | Substance | relative phosphorylation
78 | NEK11, construct: Full length (from UniProt Q8NG66) | 0.563
79 | MKNK1, construct: Full length (D165-205) (from UniProt Q9BUB5) | 1.04
80 | TP53RK, construct: Full length (from UniProt Q96S44) | 1.05
81 | GRK2, construct: Full length (from UniProt P25098) | 0.79
82 | NEK4, construct: Full length (from UniProt P51957) | 0.974
83 | AURKB, construct: Full length (from UniProt Q96GD4) | 0.78
84 | SGK3, construct: aa119-end (from UniProt Q96BR1) | 0.807
85 | GRK7, construct: Full length (from UniProt Q8WTQ7) | 0.58

Same assay, conditions: K fixed; at +2

Row | Substance | relative phosphorylation
86 | NEK11, construct: Full length (from UniProt Q8NG66) | 1.85
